# Experimental data from publication PMC8514465, “Functional and structural analysis of catabolite control protein C that responds to citrate” (Scientific Reports, 2021).
# T1: BaCcpC-FL (Bacillus velezensis, UniProt A7Z428)
# T1 construct: gene RBAM_013910; full length, residues 1-293; N-terminal His tag removed by TEV; E. coli BL21(DE3); dimer (~60 kDa) by SEC-MALS
# T1 sequence (A7Z428 1-293): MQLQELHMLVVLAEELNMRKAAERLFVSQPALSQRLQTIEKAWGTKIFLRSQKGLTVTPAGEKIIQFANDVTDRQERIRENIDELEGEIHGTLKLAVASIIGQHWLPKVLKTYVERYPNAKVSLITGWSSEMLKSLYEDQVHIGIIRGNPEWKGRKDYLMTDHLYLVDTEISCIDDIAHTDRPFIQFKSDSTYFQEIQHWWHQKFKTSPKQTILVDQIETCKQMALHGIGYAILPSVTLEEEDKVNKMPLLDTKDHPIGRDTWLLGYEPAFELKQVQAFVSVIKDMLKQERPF
# Key:
# BaCcpC-FL = biological target: T1, BaCcpC-FL; experiment: EMSA with biotin-labelled citB promoter DNA; format: binding; details: 40 μM protein, 800 nM citB promoter DNA, 0-70 μM citrate, 30 min, room temperature; inducer
# [1] = biological target: the molecule itself; experiment: SEC-MALS; BaCcpC-FL not incubated with citrate; Superdex 200 Increase 10/300 GL, 295 K, 20 mM Tris pH 8.0, 150 mM NaCl, 2 mM 2-mercaptoethanol
# [2] = biological target: the molecule itself; experiment: crystal structure; BaCcpC-IBD with citrate, 2.3 Å, space group C2, SAD phasing; crystals from PEG 6000, MPD, 0.1 M HEPES pH 7.5, 287 K
molecule,measurement,setting,value
O=C(O)CC(O)(CC(=O)O)C(=O)O [citrate],EMSA with biotin-labelled citB promoter DNA,BaCcpC-FL,the presence of citrate slightly suppressed the binding of CcpC to citB-P
"full-length catabolite control protein C from Bacillus amyloliquefaciens (natural protein, UniProt A0A9P1JGF9 1-293, looked up, Catabolite control protein C (CcpC), LysR-type transcriptional regulator, Bacillus amyloliquefaciens, residues 1-293, amplified from genomic DNA; PDB 7DMW holds only residues 88-293; also called BaCcpC-FL; BaCcpC; source: E. coli BL21 (DE3), purified (Ni-NTA, TEV cleavage, HiTrap-Q, Superdex 200); not shown: His6, N-terminal, cleaved) MQLQELHMLVVLAEELNMRKAAERLFVSQPALSQRLQTIEKAWGTKIFLRSQKGLTVTPAGEKIIQFANDVTDRQERIRENIDELEGEIHGTLKLAVASIIGQHWLPKVLKTYVERYPNAKVSLITGWSSEMLKSLYEDQVHIGIIRGNPEWKGRKDYLMTDHLYLVDTEISCIDDIAHTDRPFIQFKSDSTYFQEIQHWWHQKFKTSPKQTILVDQIETCKQMALHGIGYAILPSVTLEEEDKVNKMPLLDAKDHPIGRDTWLLGYEPAFELKQVQAFVSVVKDMLKQERPF",stoichiometry N,[1],2
"C-terminal inducer-binding domain of Bacillus amyloliquefaciens CcpC (domain or fragment, UniProt A0A9P1JGF9 88-293, looked up, selenomethionine-substituted (Se-Met protein used for SAD phasing), Crystallised in complex with citrate; five molecules in the asymmetric unit; Cloned into pPROEX-HTA; also called BaCcpC-IBD; CcpC-IBD; source: E. coli BL21 (DE3), purified (Ni-NTA, TEV cleavage, HiTrap-Q, Superdex 200) with 10 mM sodium citrate throughout; not shown: His6, N-terminal, cleaved) EIHGTLKLAVASIIGQHWLPKVLKTYVERYPNAKVSLITGWSSEMLKSLYEDQVHIGIIRGNPEWKGRKDYLMTDHLYLVDTEISCIDDIAHTDRPFIQFKSDSTYFQEIQHWWHQKFKTSPKQTILVDQIETCKQMALHGIGYAILPSVTLEEEDKVNKMPLLDAKDHPIGRDTWLLGYEPAFELKQVQAFVSVVKDMLKQERPF",binding result,[2],binds
